Data as given in IntAct's records for PubMed 16469698.

Target: mfd_ecoli mfd (UniProt P30958)

effect of a mutation on the interaction: decreasing interaction
Substance: DNA-directed RNA polymerase subunit beta (Escherichia coli (strain K12)) (from UniProt P0A8V2) E119A
